Test results reported in patent US11130780B2, “Inhibitors of growth factor activation enzymes” (Washington University, priority 2015, dated 2021).

System: T1, Cc1cc(=O)oc2cc(NC(=O)[C@H](CCCNC(=N)N)NC(=O)[C@H](C)NC(=O)[C@H](CCC(N)=O)NC(=O)OC(C)(C)C)ccc12
T1 construct: purchased R&D Systems 4776-SE-010
Experiment: Km determination of fluorogenic substrate with hepsin
Type: biochemical, human
Procedure: In black 384 well plates (Corning #3575), 12.5 nM HGFA was mixed with various amounts of Boc-QLR-AMC and 1 nM matriptase and 0.3 nM hepsin were mixed with various amounts of Boc-QAR-AMC. Changes in fluorescence (excitation at 380 nm and emission at 460 nn) were measured at room temperature over time in a Biotek Synergy 2 plate reader (Winnoski, Vt.). Using plots of the mean reaction velocity versus substrate concentration and the Michaelis-Menten enzyme kinetics equation within GraphPad Prism version 6.04 for Windows (GraphPad Software, San Diego, Calif., www.graphpad.com), the reaction Vmax and subsequent Km for each of the substrates were determined.

hepsin (Homo sapiens), sequence (chain, as listed by the source): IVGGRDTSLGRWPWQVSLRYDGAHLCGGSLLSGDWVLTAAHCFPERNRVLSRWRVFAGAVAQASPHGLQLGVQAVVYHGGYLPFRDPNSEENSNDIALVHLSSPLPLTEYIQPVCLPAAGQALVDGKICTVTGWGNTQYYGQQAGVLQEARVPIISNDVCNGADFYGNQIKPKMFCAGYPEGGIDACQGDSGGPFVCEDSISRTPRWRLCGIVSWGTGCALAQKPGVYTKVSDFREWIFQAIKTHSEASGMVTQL

hepsin (Homo sapiens) showed a Km of 156 µM.
